According to publication PMC4426631, “Insect antimicrobial peptides show potentiating functional interactions against Gram-negative bacteria” (Proceedings of the Royal Society B: Biological Sciences, 2015):
Cf = 5(6)-carboxyfluorescein

Molecular target: T1, DnaK–BHQ10 (E. coli chaperone DnaK labelled with Black Hole Quencher 10) (E. coli, UniProt P0A6Y8 1-638, BHQ10 (from BHQ10-NHS-ester), labelling ratio 1 : 9 DnaK : BHQ10)
T1 construct: chaperone DnaK of Escherichia coli; also called bacterial DnaK; quencher-labelled bacterial DnaK probe; source: produced by Michael Zahn [50]; dialysed and labelled with BHQ10-NHS-ester
T1 sequence (P0A6Y8 whole entry): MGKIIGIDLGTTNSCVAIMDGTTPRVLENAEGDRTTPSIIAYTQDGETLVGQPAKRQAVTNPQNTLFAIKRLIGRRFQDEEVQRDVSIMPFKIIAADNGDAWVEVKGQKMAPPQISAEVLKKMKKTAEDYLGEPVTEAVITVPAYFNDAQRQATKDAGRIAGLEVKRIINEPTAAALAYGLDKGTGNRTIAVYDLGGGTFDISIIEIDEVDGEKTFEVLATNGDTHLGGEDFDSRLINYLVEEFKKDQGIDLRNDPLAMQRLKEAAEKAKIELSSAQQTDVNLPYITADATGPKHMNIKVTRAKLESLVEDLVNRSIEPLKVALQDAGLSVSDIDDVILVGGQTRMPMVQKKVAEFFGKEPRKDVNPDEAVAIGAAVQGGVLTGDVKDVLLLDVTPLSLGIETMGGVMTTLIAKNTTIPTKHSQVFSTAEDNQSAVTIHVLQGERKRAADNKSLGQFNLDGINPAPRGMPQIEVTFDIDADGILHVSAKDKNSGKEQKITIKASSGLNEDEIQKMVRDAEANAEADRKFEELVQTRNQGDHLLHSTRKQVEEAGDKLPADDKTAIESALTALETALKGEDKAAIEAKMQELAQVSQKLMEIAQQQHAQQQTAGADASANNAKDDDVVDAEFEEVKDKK
Experiment: FRET or BRET; FRET-based quenching assay in solution: fluorescein-modified peptide (50 μl, 1.3 nmol/l) mixed with a serial dilution of DnaK–BHQ10 (50 μl, 0.8–13 000 nmol/l, 1 : 4 series) in modifying buffer (20 mmol/l Na2HPO4, 20 mmol/l KH2PO4, 5 mmol/l MgCl2, 150 mmol/l KCl, pH 7.4), black 384-well plate, 2 h; Kd by non-linear regression (dose-response logistical function, SlideWrite) of quenching against DnaK …
Details: both partners purified

Binder | Kd
Cf-HRRQGPIFDTRPSPFNPNQPRPGPIY-NH2 (metchnikowin 2 of Drosophila melanogaster; source: synthetic peptide (PANATecs, Tübingen), purified to >95%) [Metchnikowin-2 (P5), Drosophila melanogaster, Cf-[residues removed]-NH2] | > 5 µM
Cf-HRHQGPIFDTRPSPFNPNQPRPGPIY-NH2 (metchnikowin 1 of Drosophila melanogaster; source: synthetic peptide (PANATecs, Tübingen), purified to >95%) [Metchnikowin-1 (P4), Drosophila melanogaster, Cf-[residues removed]-NH2] | > 5 µM
Cf-FVPYNPPRPGQSKPFPSFPGHGPFNPKIQWPYPLPNPGH-NH2 (abaecin of Bombus pascuorum, 39 residues; also called B. pascuorum abaecin; source: synthetic peptide (PANATecs, Tübingen), purified to >95%) [Abaecin (P3), Bombus pascuorum, Cf-[residues removed]-NH2] | 0.19 ± 0.03 µM
Cf-VDKPDYRPRPWPRPN-NH2 (metalnikowin IIA of Palomena prasina; source: synthetic peptide (PANATecs, Tübingen), purified to >95%) [Metalnikowin IIA (P2), Palomena prasina, Cf-VDKPDYRPRPWPRPN-NH2] | > 5 µM
Cf-VDKPDYRPRPRPPNM-NH2 (metalnikowin I of Palomena prasina; source: synthetic peptide (PANATecs, Tübingen), purified to >95%) [Metalnikowin I (P1), Palomena prasina, Cf-VDKPDYRPRPRPPNM-NH2] | > 5 µM
